Like-named read-outs stand apart in the source and are kept apart here.
T1: human CD40L, membrane-bound on cells (human, UniProt P29965 1-261)
T1 sequence: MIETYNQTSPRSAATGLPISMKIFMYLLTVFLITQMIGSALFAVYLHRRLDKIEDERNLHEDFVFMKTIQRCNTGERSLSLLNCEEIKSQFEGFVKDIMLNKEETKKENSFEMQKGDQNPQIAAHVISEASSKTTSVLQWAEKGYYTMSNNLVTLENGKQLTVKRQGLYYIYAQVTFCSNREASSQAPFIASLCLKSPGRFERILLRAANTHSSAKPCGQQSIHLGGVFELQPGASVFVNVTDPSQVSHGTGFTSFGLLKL

T2: biotinylated IZ-hCD40L (biot-IZ-hCD40L) (human, UniProt P29965 113-261, biotinylated)
T2 construct: biotinylated version of IZ-hCD40L captured on streptavidin chip; also called biotinylated CD40L; not shown: N-terminal isoleucine zipper motif
T2 sequence: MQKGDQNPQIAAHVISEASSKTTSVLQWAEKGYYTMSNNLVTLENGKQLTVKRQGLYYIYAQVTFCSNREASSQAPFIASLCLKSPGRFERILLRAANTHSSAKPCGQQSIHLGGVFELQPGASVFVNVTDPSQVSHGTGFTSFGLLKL

T3: human isoleucine zipper-CD40L (IZ-hCD40L) (human, UniProt P29965 113-261)
T3 sequence: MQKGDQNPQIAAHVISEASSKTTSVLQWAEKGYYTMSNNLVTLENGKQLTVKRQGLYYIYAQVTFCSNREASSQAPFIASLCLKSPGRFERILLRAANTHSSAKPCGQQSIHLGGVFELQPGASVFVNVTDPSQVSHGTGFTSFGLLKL

T4: human CD40L monomer triple mutant (T211E, S222Y, H224K, [108-261]) (human, UniProt P29965 108-261)
T4 construct: also called monomeric human CD40L
T4 chain: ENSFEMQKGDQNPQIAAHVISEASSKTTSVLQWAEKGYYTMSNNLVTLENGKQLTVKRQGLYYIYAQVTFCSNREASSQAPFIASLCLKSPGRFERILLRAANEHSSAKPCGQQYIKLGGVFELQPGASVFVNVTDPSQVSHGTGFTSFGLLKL

B1: 2h719-2 Fc (Fc fusion, not shown: a dimerising Fc or GST)
chain: EVQLLESGGGLVQPGGSLRLSCAASGFTFKRYEMMWVRQAPGKGLEWVSSISSDGSFTYYADSVKGRFTISRDNSKNTLYLQMNSLRAEDTAVYYCAEPFTEFDYWGHGTLVTVSS
B2: 2h719-202-N297Qshort Fc (Fc fusion, not shown: a dimerising Fc or GST)
chain: EVQLLESGGGLVQPGGSLRLSCAASGFTFKKYEMMWVRQAPGKGLEWVSSISSDGSFTYYADSVKGRFTISRDNSKNTLYLQMNSLRAEDTAVYYCAEPFTEFDYWGHGTLVTVSS
B3: BMS2h-572-633 (other)
VH: EVQLLESGGGLVQPGGSLRLSCAASGFTFNWELMGWARQAPGKGLEWVSGIEGPGDVTYYADSVKGRFTISRDNSKNTLYLQMNSLRAEDTAVYYCVKVGKDAKSDYRGQGTLVTVSS
notes: VH dAb, monovalent
B4: 2h572-635-CT Long Fc (Fc fusion)
chain: EVQLLESGGGLVQPGGSLRLSCAASGFTFNWELMGWARQAPGKGLEWVSGIEGPGDVTYYADSVKGRFTISRDNSKNTLYLQMNSLRAEDTAVYYCVKVGKDSKSDYRGQGTLVTVSS
notes: not shown: linker and CT Long Fc (CT-L2)
B5: 2h572-608-CT Long Fc (Fc fusion)
chain: EVQLLESGGGLVQPGGSLRLSCAASGFTFNWELMGWARQAPGKGLEWVSGIEGPGDVTYYADSVKGRFTISRDNSKNTLYLQMNSLRAEDTAVYYCVKVGKESNSDYRGQGTLVTVSS
notes: as for B4
B6: 2h572-634-CT Long Fc (Fc fusion)
chain: EVQLLESGGGLVQPGGSLRLSCAASGFTFNWELMGWARQAPGKGLEWVSGIEGPGDVTYYADSVKGRFTISRDNSKNTLYLQMNSLRAEDTAVYYCVKVGKDSRSDYRGQGTLVTVSS
notes: as for B4
B7: 2h572-633-CT Long Fc (Fc fusion)
chain: EVQLLESGGGLVQPGGSLRLSCAASGFTFNWELMGWARQAPGKGLEWVSGIEGPGDVTYYADSVKGRFTISRDNSKNTLYLQMNSLRAEDTAVYYCVKVGKDAKSDYRGQGTLVTVSS
notes: as for B4
B8: 2h572-6-CT Long Fc (Fc fusion)
chain: EVQLLESGGGLVQPGGSLRLSCAASGFTFNWQLMGWVRQAPGKGLEWVSGIEGPGDVTYYADSVKGRFTISRDNSKNTLYLQMNSLRAEDTAVYYCVKVGKESNSDYRGQGTLVTVSS
notes: as for B4
B9: 2h572-619-Ctlong Fc (Fc fusion)
chain: EVQLLESGGGLVQPGGSLRLSCAASGFTFNWQLMGWVRQAPGKGLEWVSGIEGPGDVTYYADSVKGRFTISRDNSKNTLYLQMNSLRAEDTAVYYCVKVGKDSRSDYRGQGTLVTVSS
notes: as for B4
B10: 2h572-614-CT Long Fc (Fc fusion)
chain: EVQLLESGGGLVQPGGSLRLSCAASGFTFNWQLMGWVRQAPGKGLEWVSGIEGPGDVTYYADSVKGRFTISRDNSKNTLYLQMNSLRAEDTAVYYCVKVGKDAKSDYRGQGTLVTVSS
notes: as for B4

Legend:
[1] = target: human CD16a (FcγRIIIa) (human) (UniProt P08637); assay: SPR; captured on biot-IZ-hCD40L surface, soluble FcR as analyte; pH 7.1
[2] = target: human CD64 (FcγRI) (human) (UniProt P12314); assay: as above
[3] = target: human CD32a (FcγRIIa), soluble (human) (UniProt P12318); assay: SPR; biphasic binding, steady state fit to the dominant binding event; pH 7.1
[4] = target: cynomolgus monkey CD40L on cells (cynomolgus monkey) (UniProt G7Q1T4); assay: in vivo receptor occupancy on monkey PBMC, 20 mg/kg IV, through 1032 h
[5] = target: cynomolgus monkey CD40L on cells (cynomolgus monkey) (UniProt G7Q1T4); assay: in vivo receptor occupancy on monkey PBMC, 20 mg/kg IV, 48 h post-dose
human FcRn (human) = human FcRn (human) (UniProt P55899); assay: SPR; captured on biot-IZ-hCD40L surface, soluble FcR as analyte; pH 6
mouse CD40L (mouse) = mouse CD40L (mouse) (UniProt P27548); assay: cell-based or functional assay
[6] = target: human isoleucine zipper-CD40L (IZ-hCD40L) (human) (UniProt P29965); assay: cell-based or functional assay
[7] = target: T1, human CD40L, membrane-bound on cells; assay: cell-based or functional assay
[8] = target: human isoleucine zipper-CD40L (IZ-hCD40L) (human) (UniProt P29965); assay: cell-based or functional assay; remark: listed apart in the source
[9] = target: T1, human CD40L, membrane-bound on cells; assay: cell-based or functional assay; remark: listed apart in the source
[10] = target: T2, biotinylated IZ-hCD40L (biot-IZ-hCD40L); assay: SPR (Biacore), 25 C, 1:1 Langmuir; monovalent dAb
Source text: The SPR experiments utilized a hCD40L construct containing an N-terminal isoleucine zipper motif (IZ-hCD40L) which facilitates the specific assembly of the CD40L molecule into the native trimeric form.

[11] = target: T3, human isoleucine zipper-CD40L …; assay: cell-based or functional assay
[12] = target: T1, human CD40L, membrane-bound on cells; assay: cell-based or functional assay; remark: listed apart in the source
[13] = target: T3, human isoleucine zipper-CD40L …; assay: cell-based or functional assay; remark: listed apart in the source
[14] = target: T1, human CD40L, membrane-bound on cells; assay: cell-based or functional assay; remark: listed apart in the source
[15] = target: T4, human CD40L monomer triple mutant …; assay: SPR; dAb-CT-long captured on anti-human IgG Fc surface, CD40L monomer as analyte

Chain of mouse CD40L (mouse) (P27548 112-260 limits assumed): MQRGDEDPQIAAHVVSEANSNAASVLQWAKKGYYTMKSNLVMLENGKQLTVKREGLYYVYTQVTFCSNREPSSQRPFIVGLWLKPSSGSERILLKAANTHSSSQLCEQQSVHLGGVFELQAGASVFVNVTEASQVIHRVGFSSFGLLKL
Chain of human CD32a (FcγRIIa), soluble (human) (P12318 36-218 limits assumed): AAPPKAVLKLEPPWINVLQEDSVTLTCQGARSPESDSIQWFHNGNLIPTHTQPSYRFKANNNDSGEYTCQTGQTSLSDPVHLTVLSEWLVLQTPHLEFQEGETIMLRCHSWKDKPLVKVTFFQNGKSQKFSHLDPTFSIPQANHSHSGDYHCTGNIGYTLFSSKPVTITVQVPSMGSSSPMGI
Chain of human FcRn (human) (P55899 24-297 limits assumed, chain 1 of 2): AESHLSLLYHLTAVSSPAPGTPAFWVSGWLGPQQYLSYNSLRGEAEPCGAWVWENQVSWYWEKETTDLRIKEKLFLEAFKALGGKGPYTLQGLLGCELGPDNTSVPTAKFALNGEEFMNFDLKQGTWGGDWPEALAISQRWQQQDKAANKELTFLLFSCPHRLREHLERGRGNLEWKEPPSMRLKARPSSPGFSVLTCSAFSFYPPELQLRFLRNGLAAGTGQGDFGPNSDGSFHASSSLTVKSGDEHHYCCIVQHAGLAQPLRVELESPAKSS
Chain of human FcRn (human) (P61769 21-119 limits assumed, chain 2 of 2, further chain): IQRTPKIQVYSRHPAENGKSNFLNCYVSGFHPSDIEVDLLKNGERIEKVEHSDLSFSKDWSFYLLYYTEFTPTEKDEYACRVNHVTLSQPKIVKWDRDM
Chain of human CD16a (FcγRIIIa) (human) (P08637 17-208 limits assumed): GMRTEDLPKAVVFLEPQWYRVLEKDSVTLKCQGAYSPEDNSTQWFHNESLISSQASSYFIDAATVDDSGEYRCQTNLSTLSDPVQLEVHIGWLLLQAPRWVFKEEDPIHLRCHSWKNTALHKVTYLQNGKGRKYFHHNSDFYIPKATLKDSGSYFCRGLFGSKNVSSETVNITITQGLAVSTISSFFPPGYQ
Chain of human CD64 (FcγRI) (human) (P12314 16-288 limits assumed): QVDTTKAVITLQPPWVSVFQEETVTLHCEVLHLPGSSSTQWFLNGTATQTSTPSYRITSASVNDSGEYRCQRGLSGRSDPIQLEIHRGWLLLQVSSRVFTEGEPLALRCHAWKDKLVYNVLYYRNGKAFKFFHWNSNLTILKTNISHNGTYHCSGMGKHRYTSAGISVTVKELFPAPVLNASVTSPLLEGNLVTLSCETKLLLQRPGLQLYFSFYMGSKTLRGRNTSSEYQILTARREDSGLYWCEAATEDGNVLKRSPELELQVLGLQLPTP

Row | Molecule | hIZCD40L-driven Human B Cell Proliferation EC50 [13] [nM] | CHO-hCD40L-driven DC Activation IL-12 EC50 [14] [nM] | CHO-hCD40L-driven Human B Cell Proliferation EC50 [14] [nM] | T-B cell MLR EC50 [14] [nM] | T-B cell MLR IL-6 EC50 [14] [nM] | binding result [15] | other results
1 | 5c8-IgG1 (antibody) |  |  |  |  |  |  | Kd [1]: 240 nM; Kd [2]: < 0.05 nM; Kd [3]: 100 nM; receptor occupancy [4]: > 97%; mean peak receptor occupancy [5]: 100%; Kd (human FcRn (human)): 590 nM
2 | MR-1 (antibody) |  |  |  |  |  |  | CHO-CD40L B cell Assay EC50 (mouse CD40L (mouse)): 0.6 nM; CHO-CD40L DC Assay IL-6 EC50 (mouse CD40L (mouse)): 0.6 nM; Trimer B cell Assay EC50 (mouse CD40L (mouse)): 1.7 nM
3 | 5c8 mAb (antibody) |  |  |  |  |  |  | Trimer B cell Assay EC50 [6]: 8 nM; CHO-CD40L B cell Assay EC50 [7]: 2 nM; CHO-CD40L DC Assay IL-12 EC50 [7]: 2 nM; T-B MLR EC50 [7]: 0.54 nM; T-B MLR IL-6 EC50 [7]: 0.23 nM
4 | B1 |  |  |  |  |  |  | hIZCD40L-driven Human B Cell Proliferation EC50 [8]: 1 nM; CHO-hCD40L-driven DC Activation IL-12 EC50 [9]: 0.13 nM; CHO-hCD40L-driven Human B Cell Proliferation EC50 [9]: 0.7 nM; T-B cell MLR EC50 [9]: 6 nM
5 | B2 |  |  |  |  |  |  | hIZCD40L-driven Human B Cell Proliferation EC50 [8]: 1.8 nM; CHO-hCD40L-driven DC Activation IL-12 EC50 [9]: 0.66 nM; CHO-hCD40L-driven Human B Cell Proliferation EC50 [9]: 1.7 nM
6 | B3 |  |  |  |  |  |  | Kd [10]: 7.8 nM; koff [10]: 0.0081 s⁻¹; kon [10]: 1e+06 M⁻¹ s⁻¹; hIZCD40L-driven Human B Cell Proliferation EC50 [11]: 20 nM; CHO-hCD40L-driven DC Activation IL-12 EC50 [12]: 53 nM
7 | B4 | 3 | 1.6 | 2 | 0.149 | 0.13 | no binding | 
8 | B5 | 2 | 1.6 | 2 | 0.468 | 0.38 | no binding | 
9 | B6 | 2 | 1.5 | 1 | 0.162 | 0.13 | no binding | 
10 | B7 | 3 | 1.9 | 1 | 0.174 | 0.13 | no binding | CHO-hCD40L-driven DC Activation IL-6 EC50 [14]: 1.3 nM; CHO-hCD40L-driven DC Activation IL-23 EC50 [14]: 1.2 nM; CHO-hCD40L-driven DC Activation TNF EC50 [14]: 1.7 nM
11 | B8 | 1 | 3 | 6 | 13.6 | 8.1 | no binding | 
12 | B9 | 1.6 | 1.4 | 2 | 0.72 | 0.43 | no binding | CHO-hCD40L-driven DC Activation IL-6 EC50 [14]: 1.5 nM; CHO-hCD40L-driven DC Activation IL-23 EC50 [14]: 1.5 nM; CHO-hCD40L-driven DC Activation TNF EC50 [14]: 2 nM
13 | B10 | 2 | 1.4 | 2 | 0.283 | 0.25 | no binding | 

— patent US20160075790A1 (Bristol-Myers Squibb, published 2016)
